Where a chain is given by its changes, count along the chain named.
B1: X67-G01: single point mutation of M142-H08 (P2); HV-CDR3 GGLLLWCRELKSNYFDY (antibody, V domains shown)
VL: QDIQMTQSPSSLSAFVGDRVTITCRASQPIDNYLNWYHQKPGKAPKLLIYAASRLQSGVPSRLSGSGFGTDFTLTISSLQPEDFGNYYCQQSYTVPYTFGGGTKVEIR
VH: EVQLLESGGGLVQPGGSLRLSCAASGFTFSAYSMIWVRQAPGKGLEWVSYIRPSGGRTTYADSVKGRFTISRDNSKNTLYLQMNSLRAEDTAVYYCARGGLLLWCRELKSNYFDYWGQGTLVTVSSASTKGPSVFPLAPSSKS
B2: X66-C03: single point mutation of M142-H08 (P1); HV-CDR3 GGLLLWFLELKSNYFDY (antibody, V domains shown)
VL: B1 VL
VH: B1 VH with C105F, R106L
B3: X67-H01: single point mutation of M142-H08 (P2); HV-CDR3 GGLLLWWRELKSNYFDY (antibody, V domains shown)
VL: B1 VL
VH: B1 VH with C105W
B4: X67-G09: single point mutation of M142-H08 (P2); HV-CDR3 GGLLLWLRELKSNYFDY (antibody, V domains shown)
VL: B1 VL
VH: B1 VH with C105L
B5: X66-B05: single point mutation of M142-H08 (P1); HV-CDR3 GGLLLWFCELKSNYFDY (antibody, V domains shown)
VL: B1 VL
VH: B1 VH with C105F, R106C
B6: X67-H04: single point mutation of M142-H08 (P2); HV-CDR3 GGLLLWERELKSNYFDY (antibody, V domains shown)
VL: B1 VL
VH: B1 VH with C105E
B7: X66-C11: single point mutation of M142-H08 (P1); HV-CDR3 GGLLLWFHELKSNYFDY (antibody, V domains shown)
VL: B1 VL
VH: B1 VH with C105F, R106H
B8: X67-F10: single point mutation of M142-H08 (P2); HV-CDR3 GGLLLWTRELKSNYFDY (antibody, V domains shown)
VL: B1 VL
VH: B1 VH with C105T
B9: X66-E04: single point mutation of M142-H08 (P1); HV-CDR3 GGLLLWFQELKSNYFDY (antibody, V domains shown)
VL: B1 VL
VH: B1 VH with C105F, R106Q
B10: X66-C02: single point mutation of M142-H08 (P1); HV-CDR3 GGLLLWFVELKSNYFDY (antibody, V domains shown)
VL: B1 VL
VH: B1 VH with C105F, R106V
B11: X67-E04: single point mutation of M142-H08 (P2); HV-CDR3 GGLLLWDRELKSNYFDY (antibody, V domains shown)
VL: B1 VL
VH: B1 VH with C105D
B12: X66-A07: single point mutation of M142-H08 (P1); HV-CDR3 GGLLLWFKELKSNYFDY (antibody, V domains shown)
VL: B1 VL
VH: B1 VH with C105F, R106K
B13: X66-H02: single point mutation of M142-H08 (P1); HV-CDR3 GGLLLWFGELKSNYFDY (antibody, V domains shown)
VL: B1 VL
VH: B1 VH with C105F, R106G
B14: X67-B03: single point mutation of M142-H08 (P2); HV-CDR3 GGLLLWSRELKSNYFDY (antibody, V domains shown)
VL: B1 VL
VH: B1 VH with C105S
B15: X66-F09: single point mutation of M142-H08 (P1); HV-CDR3 GGLLLWFWELKSNYFDY (antibody, V domains shown)
VL: B1 VL
VH: B1 VH with C105F, R106W
B16: X67-C09: single point mutation of M142-H08 (P2); HV-CDR3 GGLLLWGRELKSNYFDY (antibody, V domains shown)
VL: B1 VL
VH: B1 VH with C105G
B17: X66-F10: single point mutation of M142-H08 (P1); HV-CDR3 GGLLLWFPELKSNYFDY (antibody, V domains shown)
VL: B1 VL
VH: B1 VH with C105F, R106P
B18: X67-G05: single point mutation of M142-H08 (P2); HV-CDR3 GGLLLWRRELKSNYFDY (antibody, V domains shown)
VL: B1 VL
VH: B1 VH with C105R
B19: X67-B05: single point mutation of M142-H08 (P2); HV-CDR3 GGLLLWPRELKSNYFDY (antibody, V domains shown)
VL: B1 VL
VH: B1 VH with C105P
B20: X66-H04: single point mutation of M142-H08 (P1); HV-CDR3 GGLLLWFFELKSNYFDY (antibody, V domains shown)
VL: B1 VL
VH: B1 VH with C105F, R106F
B21: X67-B04: single point mutation of M142-H08 (P2); HV-CDR3 GGLLLWKRELKSNYFDY (antibody, V domains shown)
VL: B1 VL
VH: B1 VH with C105K
B22: X66-E09: single point mutation of M142-H08 (P1); HV-CDR3 GGLLLWFAELKSNYFDY (antibody, V domains shown)
VL: B1 VL
VH: B1 VH with C105F, R106A
B23: X66-G05: single point mutation of M142-H08 (P1); HV-CDR3 GGLLLWFMELKSNYFDY (antibody, V domains shown)
VL: B1 VL
VH: B1 VH with C105F, R106M
B24: X66-H11: single point mutation of M142-H08 (P1); HV-CDR3 GGLLLWFTELKSNYFDY (antibody, V domains shown)
VL: B1 VL
VH: B1 VH with C105F, R106T
B25: X67-F08: single point mutation of M142-H08 (P2); HV-CDR3 GGLLLWYRELKSNYFDY (antibody, V domains shown)
VL: B1 VL
VH: B1 VH with C105Y
B26: X66-F01: single point mutation of M142-H08 (P1); HV-CDR3 GGLLLWFSELKSNYFDY (antibody, V domains shown)
VL: B1 VL
VH: B1 VH with C105F, R106S
B27: X66-D03: single point mutation of M142-H08 (P1); HV-CDR3 GGLLLWFEELKSNYFDY (antibody, V domains shown)
VL: B1 VL
VH: B1 VH with C105F, R106E

Molecular target: T1, pKal (Homo sapiens, UniProt P03952)
T1 construct: two disulfide linked polypeptides; a heavy chain of approximately 52 kDa and a catalytic domain of approximately 34 kDa; host or cells: human plasma
Test: Fab fragments (small scale) tested for inhibition against human pKal in an in vitro protease cleavage assay
Type: biochemical
Conditions: Table 9

T1 sequence (P03952 391-638 limits assumed): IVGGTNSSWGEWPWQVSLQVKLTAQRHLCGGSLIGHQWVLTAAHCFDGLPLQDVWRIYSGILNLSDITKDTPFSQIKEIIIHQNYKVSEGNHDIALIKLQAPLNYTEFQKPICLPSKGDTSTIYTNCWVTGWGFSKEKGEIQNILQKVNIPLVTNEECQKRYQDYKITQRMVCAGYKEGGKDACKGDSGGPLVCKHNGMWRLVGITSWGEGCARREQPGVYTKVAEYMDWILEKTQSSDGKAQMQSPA
T1 sequence (P03952 20-390 partner limits assumed): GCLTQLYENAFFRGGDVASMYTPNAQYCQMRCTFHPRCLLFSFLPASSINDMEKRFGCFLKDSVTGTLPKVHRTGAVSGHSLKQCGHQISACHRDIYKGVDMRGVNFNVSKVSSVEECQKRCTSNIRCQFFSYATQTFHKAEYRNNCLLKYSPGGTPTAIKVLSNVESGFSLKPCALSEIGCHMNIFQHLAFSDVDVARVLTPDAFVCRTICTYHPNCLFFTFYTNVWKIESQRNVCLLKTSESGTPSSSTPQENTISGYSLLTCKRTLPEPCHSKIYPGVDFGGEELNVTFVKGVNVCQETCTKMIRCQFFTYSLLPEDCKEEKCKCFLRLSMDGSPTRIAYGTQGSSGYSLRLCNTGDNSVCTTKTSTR

| Inhibit as a Fab? | Molecule |
| --- | --- |
| No | B1 |
| No | B2 |
| Yes | B3 |
| Yes | B4 |
| No | B5 |
| Yes | B6 |
| No | B7 |
| Yes | B8 |
| No | B9 |
| No | B10 |
| Yes | B11 |
| No | B12 |
| No | B13 |
| Yes | B14 |
| No | B15 |
| Yes | B16 |
| No | B17 |
| Yes | B18 |
| No | B19 |
| No | B20 |
| Yes | B21 |
| No | B22 |
| No | B23 |
| No | B24 |
| Yes | B25 |
| No | B26 |
| No | B27 |

From patent US20100183625A1, “Treatment of Mucositis with Kallikrein Inhibitors” (Dyax Corp., priority 2009, published 2010)
